The source of these data is paper PMC8124205, “Immuno-PET Molecular Imaging of RANKL in Cancer” (Cancers, 2021).

The target of the assay is T1, osteoprotegerin (OPG) (UniProt O00300 22-401).
T1 construct: osteoprotegerin (OPG)
T1 sequence (looked up): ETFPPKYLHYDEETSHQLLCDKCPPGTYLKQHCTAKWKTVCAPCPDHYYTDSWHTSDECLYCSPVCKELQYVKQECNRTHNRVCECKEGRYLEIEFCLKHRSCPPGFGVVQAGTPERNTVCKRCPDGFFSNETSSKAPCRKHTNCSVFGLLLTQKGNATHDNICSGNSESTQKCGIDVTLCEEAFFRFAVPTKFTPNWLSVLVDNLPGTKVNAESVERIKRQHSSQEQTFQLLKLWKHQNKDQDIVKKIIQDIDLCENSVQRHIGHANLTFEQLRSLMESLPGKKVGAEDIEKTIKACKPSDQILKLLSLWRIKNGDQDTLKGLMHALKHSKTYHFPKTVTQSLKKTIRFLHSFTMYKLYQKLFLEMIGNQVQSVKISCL
The assay is described as follows: non-cell based binding assay; binding to human RANKL, as previously described (ref. 14); format and conditions not told.

B1: human receptor activator of nuclear factor kappa B ligand (RANKL) (ligand, UniProt O14788 140-317, looked up)
chain: IRAEKAMVDGSWLDLAKRSKLEAQPFAHLTINATDIPSGSHKVSLSSWYHDRGWAKISNMTFSNGKLIVNQDGFYYLYANICFRHHETSGDLATEYLQLMVYVTKTSIKIPSSHTLMKGGSTKYWSGNSEFHFYSINVGGFFKLRSGEEISIEVSNPSLLDPDQDATYFGAFKVRDID
notes: also called human RANKL; huRANKL; source: recombinant protein huRANKL, provided by Amgen Inc
B1 returned a Kd of about 0.63 nM.

A word on the Kd: it is the concentration at which binding is half-saturated. Read a high Kd as weaker binding.
